Data: patent US10100129B2, “Antibodies against CD73 and uses thereof” (BRISTOL-MYERS SQUIBB COMPANY, priority 2014, dated 2018)

T1: CD32a-R131 (FcgRIIa-R131) (Homo sapiens, UniProt P12318, H167R)
T1 sequence (P12318 34-217 H167R limits assumed): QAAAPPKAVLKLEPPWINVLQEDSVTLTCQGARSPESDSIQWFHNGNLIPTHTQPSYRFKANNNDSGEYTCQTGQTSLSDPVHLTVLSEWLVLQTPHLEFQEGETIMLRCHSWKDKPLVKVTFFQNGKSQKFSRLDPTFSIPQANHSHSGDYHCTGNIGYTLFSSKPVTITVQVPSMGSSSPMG

T2: CD32a-H131 (FcgRIIa-H131) (Homo sapiens, UniProt P12318)
T2 sequence (P12318 34-217 limits assumed): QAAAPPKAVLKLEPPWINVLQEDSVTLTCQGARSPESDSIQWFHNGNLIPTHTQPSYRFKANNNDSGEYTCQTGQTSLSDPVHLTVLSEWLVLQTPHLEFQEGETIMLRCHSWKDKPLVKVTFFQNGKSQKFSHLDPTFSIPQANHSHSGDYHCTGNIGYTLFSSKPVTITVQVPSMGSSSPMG

T3: CD32b (FcgRIIb) (Homo sapiens, UniProt P31994)
T3 sequence (P31994 43-310): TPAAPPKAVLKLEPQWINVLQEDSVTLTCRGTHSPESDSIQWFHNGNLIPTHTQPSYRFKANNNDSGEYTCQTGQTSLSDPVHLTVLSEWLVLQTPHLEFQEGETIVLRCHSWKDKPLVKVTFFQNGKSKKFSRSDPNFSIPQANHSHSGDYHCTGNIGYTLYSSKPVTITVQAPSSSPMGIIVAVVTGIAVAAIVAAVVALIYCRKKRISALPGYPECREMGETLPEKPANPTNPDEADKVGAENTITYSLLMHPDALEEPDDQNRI

B1: mAb11-IgG2.3 (protein)
constant: ASTKGPSVFPLAPCSRSTSESTAALGCLVKDYFPEPVTVSWNSGALTSGVHTFPAVLQSSGLYSLSSVVTVPSSNFGTQTYTCNVDHKPSNTKVDKTVERKSCVECPPCPAPPVAGPSVFLFPPKPKDTLMISRTPEVTCVVVDVSHEDPEVQFNWYVDGVEVHNAKTKPREEQFNSTFRVVSVLTVVHQDWLNGKEYKCKVSNKGLPAPIEKTISKTKGQPREPQVYTLPPSREEMTKNQVSLTCLVKGFYPSDIAVEWESNGQPENNYKTTPPMLDSDGSFFLYSKLTVDKSRWQQGNVFSCSVMHEALHNHYTQKSLSLSPGK
modifications: left off: another chain or arm of the molecule
B2: mAb6-IgG2.3 (protein)
constant: ASTKGPSVFPLAPCSRSTSESTAALGCLVKDYFPEPVTVSWNSGALTSGVHTFPAVLQSSGLYSLSSVVTVPSSNFGTQTYTCNVDHKPSNTKVDKTVERKSCVECPPCPAPPVAGPSVFLFPPKPKDTLMISRTPEVTCVVVDVSHEDPEVQFNWYVDGVEVHNAKTKPREEQFNSTFRVVSVLTVVHQDWLNGKEYKCKVSNKGLPAPIEKTISKTKGQPREPQVYTLPPSREEMTKNQVSLTCLVKGFYPSDIAVEWESNGQPENNYKTTPPMLDSDGSFFLYSKLTVDKSRWQQGNVFSCSVMHEALHNHYTQKSLSLSPGK
modifications: left off: another chain or arm of the molecule
B3: mAb4-IgG2.3 (protein)
constant: ASTKGPSVFPLAPCSRSTSESTAALGCLVKDYFPEPVTVSWNSGALTSGVHTFPAVLQSSGLYSLSSVVTVPSSNFGTQTYTCNVDHKPSNTKVDKTVERKSCVECPPCPAPPVAGPSVFLFPPKPKDTLMISRTPEVTCVVVDVSHEDPEVQFNWYVDGVEVHNAKTKPREEQFNSTFRVVSVLTVVHQDWLNGKEYKCKVSNKGLPAPIEKTISKTKGQPREPQVYTLPPSREEMTKNQVSLTCLVKGFYPSDIAVEWESNGQPENNYKTTPPMLDSDGSFFLYSKLTVDKSRWQQGNVFSCSVMHEALHNHYTQKSLSLSPGK
modifications: left off: another chain or arm of the molecule; small tags and cut ends
B4: mAb5-IgG2.3 (protein)
constant: ASTKGPSVFPLAPCSRSTSESTAALGCLVKDYFPEPVTVSWNSGALTSGVHTFPAVLQSSGLYSLSSVVTVPSSNFGTQTYTCNVDHKPSNTKVDKTVERKSCVECPPCPAPPVAGPSVFLFPPKPKDTLMISRTPEVTCVVVDVSHEDPEVQFNWYVDGVEVHNAKTKPREEQFNSTFRVVSVLTVVHQDWLNGKEYKCKVSNKGLPAPIEKTISKTKGQPREPQVYTLPPSREEMTKNQVSLTCLVKGFYPSDIAVEWESNGQPENNYKTTPPMLDSDGSFFLYSKLTVDKSRWQQGNVFSCSVMHEALHNHYTQKSLSLSPGK
modifications: left off: another chain or arm of the molecule; small tags and cut ends
B5: mAb10-IgG2.5 (protein)
constant: ASTKGPSVFPLAPSSRSTSESTAALGCLVKDYFPEPVTVSWNSGALTSGVHTFPAVLQSSGLYSLSSVVTVPSSNFGTQTYTCNVDHKPSNTKVDKTVERKCCVECPPCPAPPVAGPSVFLFPPKPKDTLMISRTPEVTCVVVDVSHEDPEVQFNWYVDGVEVHNAKTKPREEQFNSTFRVVSVLTVVHQDWLNGKEYKCKVSNKGLPAPIEKTISKTKGQPREPQVYTLPPSREEMTKNQVSLTCLVKGFYPSDIAVEWESNGQPENNYKTTPPMLDSDGSFFLYSKLTVDKSRWQQGNVFSCSVMHEALHNHYTQKSLSLSPGK
modifications: left off: another chain or arm of the molecule; small tags and cut ends
B6: mAb12-IgG2.5 (protein)
constant: ASTKGPSVFPLAPSSRSTSESTAALGCLVKDYFPEPVTVSWNSGALTSGVHTFPAVLQSSGLYSLSSVVTVPSSNFGTQTYTCNVDHKPSNTKVDKTVERKCCVECPPCPAPPVAGPSVFLFPPKPKDTLMISRTPEVTCVVVDVSHEDPEVQFNWYVDGVEVHNAKTKPREEQFNSTFRVVSVLTVVHQDWLNGKEYKCKVSNKGLPAPIEKTISKTKGQPREPQVYTLPPSREEMTKNQVSLTCLVKGFYPSDIAVEWESNGQPENNYKTTPPMLDSDGSFFLYSKLTVDKSRWQQGNVFSCSVMHEALHNHYTQKSLSLSPGK
modifications: left off: another chain or arm of the molecule
B7: mAb8-IgG2.3G1-AY-V27 (protein)
constant: ASTKGPSVFPLAPCSRSTSESTAALGCLVKDYFPEPVTVSWNSGALTSGVHTFPAVLQSSGLYSLSSVVTVPSSNFGTQTYTCNVDHKPSNTKVDKTVERKSCVECPPCPAPELLGGPSVFLFPPKPKDTLMISRTPEVTCVVVDVEHEDPEVKFNWYVDGVEVHNAKTKPREEQYNSTYRVVSVLTVLHQDWLNGKEYKCKVSNKALPAPIEKTISKAKGQPREPQVYTLPPSREEMTKNQVSLTCLVKGFYPSDIAVEWESNGQPENNYKTTPPVLDSDGSFFLYSKLTVDKSRWQQGNVFSCSVMHEALHNHYTQKSLSLSPGK
modifications: left off: another chain or arm of the molecule
B8: mAb10-IgG2.3G1-AY-V27 (protein)
constant: ASTKGPSVFPLAPCSRSTSESTAALGCLVKDYFPEPVTVSWNSGALTSGVHTFPAVLQSSGLYSLSSVVTVPSSNFGTQTYTCNVDHKPSNTKVDKTVERKSCVECPPCPAPELLGGPSVFLFPPKPKDTLMISRTPEVTCVVVDVEHEDPEVKFNWYVDGVEVHNAKTKPREEQYNSTYRVVSVLTVLHQDWLNGKEYKCKVSNKALPAPIEKTISKAKGQPREPQVYTLPPSREEMTKNQVSLTCLVKGFYPSDIAVEWESNGQPENNYKTTPPVLDSDGSFFLYSKLTVDKSRWQQGNVFSCSVMHEALHNHYTQKSLSLSPGK
modifications: left off: another chain or arm of the molecule

Key:
[1] = target: CD16a-V158 (FcgRIIIa-V158) (Homo sapiens, UniProt P08637, F176V); assay: SPR binding to FcgR-his: CD16a-V158; settings: 1 μM antibody, anti-his Fab captured FcgR-his
CD16a-V158 (FcgRIIIa-V158), sequence (P08637 17-208 F176V limits assumed): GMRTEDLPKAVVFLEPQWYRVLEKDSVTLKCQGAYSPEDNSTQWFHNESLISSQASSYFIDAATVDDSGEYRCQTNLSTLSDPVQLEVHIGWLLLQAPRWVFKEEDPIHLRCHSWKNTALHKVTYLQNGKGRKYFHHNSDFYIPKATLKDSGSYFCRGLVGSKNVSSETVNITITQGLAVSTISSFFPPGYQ
Description: (§1) The binding of antibodies to Fc gamma receptors (FcγRs or FcgRs) was studied using biosensor technologies including Biacore surface plasmon resonance (SPR) and Fortebio Biolayer Interferometry (BLI). SPR studies were performed on a Biacore T100 instrument (GE Healthcare) at 25° C. The Fab fragment from a murine anti-6×His antibody was immobilized on a CM5 sensor chip using EDC/NHS to a density of ˜3000 RU. Various his-tagged FcgRs (7 ug/ml) were captured via the C-terminal his-tag using a contact time of 30 s at 10 ul/min, and the binding of 1.0 μM antibody was evaluated in a running buffer of 10 mM NaPO4, 130 mM NaCl, 0.05% p20 (PBS-T) pH 7.1. FcgRs used for these experiments included CD64 (FcgRI), CD32a-H131 (FcgRIIa-H131), CD32a-R131 (FcgRIIa-R131), CD32b (FcgRIIb), CD16a-V158 (FcgRIIIa-V158), CD16b-NA1 (FcgRIIIb-NA1), and CD16B-NA2 (FcgRIIIb-NA2). BLI experiments were performed on a Fortebio Octet RED instrument (Pall, Fortebio) at 25° C. in 10 mM NaPO4, 130 mM NaCl, 0.05% p20 (PBS-T) pH 7.1. Antibodies were captured out of undiluted expression supernatants on protein A coated sensors, followed by the binding of 1 μM hCD32a-H131, hCD32a-R131, hCD32b, hCD16a-V158, or 0.1 μM hCD64 analytes.

[2] = target: T1, CD32a-R131 (FcgRIIa-R131); assay: SPR binding to FcgR-his: CD32a-R131; settings: 1 μM antibody, anti-his Fab captured FcgR-his
Description: as §1

CD16B-NA2 (FcgRIIIb-NA2) = CD16B-NA2 (FcgRIIIb-NA2) (Homo sapiens, UniProt O75015); assay: SPR binding to FcgR-his: CD16B-NA2; settings: 1 μM antibody, anti-his Fab captured FcgR-his
CD16B-NA2 (FcgRIIIb-NA2), sequence (O75015 17-200 limits assumed): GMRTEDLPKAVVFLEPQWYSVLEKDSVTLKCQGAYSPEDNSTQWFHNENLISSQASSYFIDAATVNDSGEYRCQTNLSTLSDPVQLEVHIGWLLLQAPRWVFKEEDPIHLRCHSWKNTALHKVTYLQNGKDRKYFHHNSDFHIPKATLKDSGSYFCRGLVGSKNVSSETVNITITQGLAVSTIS
Description: as §1

[3] = target: T2, CD32a-H131 (FcgRIIa-H131); assay: SPR binding to FcgR-his: CD32a-H131; settings: 1 μM antibody, anti-his Fab captured FcgR-his
Description: as §1

CD32b (FcgRIIb) = target: T3, CD32b (FcgRIIb); assay: SPR binding to FcgR-his: CD32b; settings: 1 μM antibody, anti-his Fab captured FcgR-his
Description: as §1

CD64 (FcgRI) = CD64 (FcgRI) (Homo sapiens, UniProt P12314); assay: SPR binding of 1.0 μM antibody to anti-his Fab captured FcgR-his: CD64
CD64 (FcgRI), sequence (P12314 16-374): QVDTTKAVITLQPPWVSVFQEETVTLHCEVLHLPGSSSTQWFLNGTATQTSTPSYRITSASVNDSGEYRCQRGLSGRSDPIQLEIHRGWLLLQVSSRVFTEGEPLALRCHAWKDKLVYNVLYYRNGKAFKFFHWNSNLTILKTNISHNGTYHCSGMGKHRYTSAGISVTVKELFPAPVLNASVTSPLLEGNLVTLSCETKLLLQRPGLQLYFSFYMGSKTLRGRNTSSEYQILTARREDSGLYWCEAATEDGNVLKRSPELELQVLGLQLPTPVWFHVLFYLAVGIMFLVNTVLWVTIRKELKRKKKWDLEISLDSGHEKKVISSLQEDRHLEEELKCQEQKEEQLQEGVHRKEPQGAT
Description: as §1

Molecule	% Rmax, binding to hCD16a-V158 [1] [%]	% Rmax, binding to hCD32a-R131 [2] [%]	% Rmax, binding to hCD16B-NA2 (CD16B-NA2 (FcgRIIIb-NA2)) [%]	% Rmax, binding to hCD32a-H131 [3] [%]	% Rmax, binding to hCD32b (CD32b (FcgRIIb)) [%]	% Rmax, binding to hCD64 (CD64 (FcgRI)) [%]
B1	1	17	0	44	5	2
B2	1	14	0	66	3	3
B3	1	6	0	39	1	1
B4	3	30	0	100	4	6
B5	1	5	0	–	1	1
B6	1	6	0	–	1	1
B7	–	80	7	67	67	78
B8	12	57	3	–	40	69
